Test [1] concerns the target T1, human CXCR4 (C-X-C chemokine receptor 4) (human, UniProt P61073 1-352).
T1 construct: also called CD184; LESTR
In words: flow cytometry on CEM cells (native human CXCR4), FITC anti-human IgG secondary. Here is the method: The antibodies were then mixed with CEM cells and allowed to bind before being detected with a FITC-conjugated anti-human IgG secondary antibody. The cells were then analyzed by fluorescence cytometry.
(In general: In flow cytometry, cells or beads pass a laser one at a time.)

Test [2] addresses T1, human CXCR4 (C-X-C chemokine receptor 4). In words: displacement of 100 pM ^125I-CXCL12 from CEM cells. The protocol:
The anti-CXCR4 antibodies were serially diluted 1:3 to yield a range of concentrations from 300 nM to 137 pM. […] An irrelevant antibody of the same isotype was used as a negative control.

Test [3] has the same target. In words: cell-based or functional assay.

T1 sequence (P61073 whole entry): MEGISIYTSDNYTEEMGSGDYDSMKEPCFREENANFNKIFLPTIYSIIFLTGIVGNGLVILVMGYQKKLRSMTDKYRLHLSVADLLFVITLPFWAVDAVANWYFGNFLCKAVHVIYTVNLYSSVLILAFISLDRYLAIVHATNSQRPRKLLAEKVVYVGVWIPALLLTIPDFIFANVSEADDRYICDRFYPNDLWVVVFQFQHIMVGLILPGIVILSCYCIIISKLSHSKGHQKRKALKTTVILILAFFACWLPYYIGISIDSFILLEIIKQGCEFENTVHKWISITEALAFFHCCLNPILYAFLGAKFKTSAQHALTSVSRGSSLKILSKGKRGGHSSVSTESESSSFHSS

B1: D1 human anti-CXCR4 monoclonal antibody (antibody, V domains shown)
VH: EVQLVQSGGGLVQPGGSLRLSCAAAGFTFSSYSMNWVRQAPGKGLEWVSYISSRSKTIYYADSVKGRFTISRDNARNSLYLQMNSLRDEDTAVYYCARDYGGQPPYYYYYGMDVWGQGTTVTVSS
VL: VIWVTQSPSSLSASVGDRVTITCRTSQGISSWLAWYQQKPEKAPELLIYAASSLQSGVPSRFSGSGSGTDFTLTISSLQPEDFATYYCQQYNSYPRTFGQGTKVEIK
With B1, the EC50 in test [1] amounted to 80 nM; in test [2], 28.6 nM. The “EC50 for inhibition of CXCL12-induced calcium flux in CEM cells” value in test [3] is 0.57 nM.

B2: E2 human anti-CXCR4 monoclonal antibody (antibody, V domains shown)
VH: EVQLVQSGGGLVQPGGSLRLSCAAAGFTFSSYSMNWVRQAPGKGLEWVSYISSRSRTIYYADSVKGRFTISRDNAKNSLYLQMNSLRDEDTAVYYCARDYGGQPPYHYYYGMDVWGQGTTVTVSS
VL: EIVLTQSPSSLSASVGDRVTITCRASQGISNWLAWYQQKPEKAPKSLIYAASSLQSGVPSRFSGSGSGTDFTLTISSLQPEDFATYYCQQYNSYPRTFGQGTKVEIK
As for B2, in test [1], the EC50 was determined as 290 nM.

What is called EC50 is the concentration that produces a half-maximal response.

The values above are taken from US20200231683A1 (Bristol-Myers Squibb, published 2020).
